The chains are these.
B1: YVVGGFLYQRL (SEQ ID NO: 65) (peptide)
peptide: YVVGGFLYQRL
notes: synthetic peptide; source gene M6PR
B2: SLAESLDQA (SEQ ID NO: 84) (peptide)
peptide: SLAESLDQA
notes: synthetic peptide; source gene DIS3
B3: SILRHVAEV (SEQ ID NO: 92) (peptide)
peptide: SILRHVAEV
notes: synthetic peptide; source gene EIF2S1
B4: AVLPHVDQV (SEQ ID NO: 81) (peptide)
peptide: AVLPHVDQV
notes: synthetic peptide; source gene KIAA0947
B5: VLINTSVTL (SEQ ID NO: 93) (peptide)
peptide: VLINTSVTL
notes: synthetic peptide; source gene ZNF292
B6: ALADGVVSQA (SEQ ID NO: 83) (peptide)
peptide: ALADGVVSQA
notes: synthetic peptide; source gene GPKOW
B7: VVMEELLKV (SEQ ID NO: 60) (peptide)
peptide: VVMEELLKV
notes: synthetic peptide; source gene CYFIP1
B8: GLAPNTPGKA (SEQ ID NO: 57) (peptide)
peptide: GLAPNTPGKA
notes: synthetic peptide; source gene PRC1
B9: KITEAIQYV (SEQ ID NO: 73) (peptide)
peptide: KITEAIQYV
notes: synthetic peptide; source gene RORA
B10: FLDNGPKTI (SEQ ID NO: 87) (peptide)
peptide: FLDNGPKTI
notes: synthetic peptide; source gene EIF4G2
B11: SMNGGVFAV (SEQ ID NO: 67) (peptide)
peptide: SMNGGVFAV
notes: synthetic peptide; source gene SLC7A11
B12: SLLDTLREV (SEQ ID NO: 59) (peptide)
peptide: SLLDTLREV
notes: synthetic peptide; source gene PPP4R1
B13: KVADYIPQL (SEQ ID NO: 76) (peptide)
peptide: KVADYIPQL
notes: synthetic peptide; source gene GLS
B14: ALLDGGSEAYWRV (SEQ ID NO: 8) (peptide)
peptide: ALLDGGSEAYWRV
notes: synthetic peptide; source gene FAM83A
B15: HLLGHLEQA (SEQ ID NO: 82) (peptide)
peptide: HLLGHLEQA
notes: synthetic peptide; source gene PRDM15
B16: ASDPILYRPVAV (SEQ ID NO: 71) (peptide)
peptide: ASDPILYRPVAV
notes: synthetic peptide; source gene PKM
B17: SLDENSDQQV (SEQ ID NO: 10) (peptide)
peptide: SLDENSDQQV
notes: synthetic peptide; source gene S100A2
B18: KVANIIAEV (SEQ ID NO: 78) (peptide)
peptide: KVANIIAEV
notes: synthetic peptide; source gene RAP1GDS1
B19: ALYEYQPLQI (SEQ ID NO: 62) (peptide)
peptide: ALYEYQPLQI
notes: synthetic peptide; source gene MNAT1
B20: ILASLATSV (SEQ ID NO: 74) (peptide)
peptide: ILASLATSV
notes: synthetic peptide; source gene TUBGCP2
B21: SIFEGLLSGV (SEQ ID NO: 7) (peptide)
peptide: SIFEGLLSGV
notes: synthetic peptide; source gene GJB5
B22: LAYTLGVKQL (SEQ ID NO: 63) (peptide)
peptide: LAYTLGVKQL
notes: synthetic peptide; source genes EEF1A1P5, EEF1A1, EEF1A2
B23: GLTDVIRDV (SEQ ID NO: 64) (peptide)
peptide: GLTDVIRDV
notes: synthetic peptide; source gene FBXL18
B24: SIYEYYHAL (SEQ ID NO: 90) (peptide)
peptide: SIYEYYHAL
notes: synthetic peptide; source gene HIF1A
B25: LLDEKVQSV (SEQ ID NO: 66) (peptide)
peptide: LLDEKVQSV
notes: synthetic peptide; source gene TSHZ3
B26: GQDVGRYQV (SEQ ID NO: 79) (peptide)
peptide: GQDVGRYQV
notes: synthetic peptide; source gene SSR4
B27: FVLDTSESV (SEQ ID NO: 70) (peptide)
peptide: FVLDTSESV
notes: synthetic peptide; source genes COL6A1, COL6A2
B28: TQTTHELTI (SEQ ID NO: 61) (peptide)
peptide: TQTTHELTI
notes: synthetic peptide; source gene PCBP1
B29: FLPPAQVTV (SEQ ID NO: 72) (peptide)
peptide: FLPPAQVTV
notes: synthetic peptide; source gene NOL6
B30: KLIDDVHRL (SEQ ID NO: 91) (peptide)
peptide: KLIDDVHRL
notes: synthetic peptide; source gene SRPR
B31: LILESIPVV (SEQ ID NO: 58) (peptide)
peptide: LILESIPVV
notes: synthetic peptide; source gene MAPK6
B32: ALQEALENA (SEQ ID NO: 80) (peptide)
peptide: ALQEALENA
notes: synthetic peptide; source gene NUP155
B33: GLLVGSEKVTM (SEQ ID NO: 69) (peptide)
peptide: GLLVGSEKVTM
notes: synthetic peptide; source genes KRT14, KRT16, KRT16P3
B34: VLVPYEPPQV (SEQ ID NO: 77) (peptide)
peptide: VLVPYEPPQV
notes: synthetic peptide; source gene TP63
B35: HLIAEIHTA (SEQ ID NO: 9) (peptide)
peptide: HLIAEIHTA
notes: synthetic peptide; source gene PTHLH; also called PTHL-001
B36: SLADSLYNL (SEQ ID NO: 89) (peptide)
peptide: SLADSLYNL
notes: synthetic peptide; source gene CAMSAP2
B37: NIIELVHQV (SEQ ID NO: 85) (peptide)
peptide: NIIELVHQV
notes: synthetic peptide; source gene SYK
B38: PAVLQSSGLYSL (SEQ ID NO: 68) (peptide)
peptide: PAVLQSSGLYSL
notes: synthetic peptide; source genes IGHV4-31, IGHG1, IGHG2, IGHG3, IGHG4, IGHM

Some results are limits rather than exact numbers.

The assay has as its target T1, HLA-A*02:01 (peptide-receptive MHC class I molecule of the UV-ligand exchange assay) (human).
T1 construct: MHC monomer first loaded with a UV-sensitive peptide (not identified) that is cleaved by UV light and exchanged for the test peptide; captured on streptavidin plates
Description: UV-ligand exchange, anti-b2m ELISA; peptide exchange yield grade (>=10% = +; >=20% = ++; >=50 = +++; >=75% = ++++). From the text: Candidate peptides for T cell based therapies according to the present invention were further tested for their MHC binding capacity (affinity). The individual peptide-MHC complexes were produced by UV-ligand exchange, where a UV-sensitive peptide is cleaved upon UV-irradiation, and exchanged with the peptide of interest as analyzed. Only peptide candidates that can effectively bind and stabilize the peptide-receptive MHC molecules prevent dissociation of the MHC complexes. To determine the yield of the exchange reaction, an ELISA was performed based on the detection of the light chain (β2m) of stabilized MHC complexes. The assay was performed as generally described in Rodenko et al. (Rodenko et al., 2006).
96 well MAXISorp plates (NUNC) were coated aver night with 2 ug/ml streptavidin in PBS at room temperature, washed 4× and blocked for 1 h at 37° C. in 2% BSA containing blocking buffer. Refolded HLA-A*02:01/MLA-001 monomers served as standards, covering the range of 15-500 ng/ml. Peptide-MHC monomers of the UV-exchange reaction were diluted 100 fold in blocking buffer. Samples were incubated for 1 h at 37° C., washed four times, incubated with 2 ug/ml HRP conjugated anti-02m for 1 h at 37° C., washed again and detected with TMB solution that is stopped with […]. Absorption was measured at 450 nm. Candidate peptides that show a high exchange yield (preferably higher than 50%, most preferred higher than 75%) are generally preferred for a generation and production of antibodies or fragments thereof, and/or T cell receptors or fragments thereof, as they show sufficient avidity to the MHC molecules and prevent dissociation of the MHC complexes.
For orientation: An ELISA detects its analyte on a solid surface through an enzyme-linked reagent.
Consider B1, for which the peptide exchange yield fell in the range of 50 to 75%.
Consider B2, for which the peptide exchange yield is 50 to 75%.
In turn, B3 displayed a peptide exchange yield of 20 to 50%.
In turn, B4 returned a peptide exchange yield of 50 to 75%.
Consider B5, for which the peptide exchange yield lay within 50 to 75%.
To B6 belongs 50 to 75%.
Consider B7, for which the peptide exchange yield fell in the range of 20 to 50%.
Turning to B8, the peptide exchange yield was in the range of 50 to 75%.
Take B9: the peptide exchange yield was 50 to 75%.
In turn, B10 returned a peptide exchange yield of 50 to 75%.
Molecule B11 yielded a peptide exchange yield of 20 to 50%.
Take B12: the peptide exchange yield was in the range of 50 to 75%.
As for B13, the peptide exchange yield fell in the range of 50 to 75%.
For the molecule B14, the peptide exchange yield fell in the range of 50 to 75%.
B15 displayed a peptide exchange yield of 50 to 75%.
B16 yielded a peptide exchange yield of 50 to 75%.
For the molecule B17, the peptide exchange yield lay in the range of 50 to 75%.
For the molecule B18, the peptide exchange yield is 20 to 50%.
Molecule B19 yielded a peptide exchange yield of 20 to 50%.
In the case of B20, the peptide exchange yield was 50 to 75%.
To B21 belongs 20 to 50%; to B22, 50 to 75%.
The molecule B23 came in with a peptide exchange yield of no less than 75%.
The molecule B24 gave a peptide exchange yield of 50 to 75%.
B25 returned a peptide exchange yield of 50 to 75%.
As for B26, the peptide exchange yield was in the range of 20 to 50%.
B27 came in with a peptide exchange yield of 50 to 75%.
Consider B28, for which the peptide exchange yield is 50 to 75%.
As for B29, the peptide exchange yield lay within 20 to 50%.
B30 came in with a peptide exchange yield of no less than 75%.
For B31, the peptide exchange yield fell in the range of 20 to 50%.
B32 registered a peptide exchange yield of 20 to 50%.
As for B33, the peptide exchange yield lay in the range of 50 to 75%.
Regarding B34, the peptide exchange yield is 20 to 50%.
B35 displayed a peptide exchange yield of 50 to 75%.
Then B36, with 20 to 50%; and B37, with no less than 75%.
As for B38, the peptide exchange yield is 20 to 50%.
